Source: publication PMC8977021, “bZIP transcription factors PcYap1 and PcRsmA link oxidative stress response to secondary metabolism and development in Penicillium chrysogenum”

B1: AflR-RsmA (dsDNA)
DNA 1: CGACTGACACAAGAAATAACAATTC
DNA 2: GAATTGTTATTTCTTGTGTCAGTCG
B2: RsmA-2B (dsDNA)
DNA 1: CAGTAAGCATCTGGGCTGCAAGCGTATAATGTCTCCAG
DNA 2: CTGGAGACATTATACGCTTGCAGCCCAGATGCTTACTG
B3: RsmA-2 (dsDNA)
DNA 1: CAGTAAGCATCTGGGCTGCAAGCGTATAATGTCTCCAGGTTGTCTCAGCATAAACA
DNA 2: TGTTTATGCTGAGACAACCTGGAGACATTATACGCTTGCAGCCCAGATGCTTACTG
B4: RsmA-2C (dsDNA)
DNA 1: CTCCAGGTTGTCTCAGCATAAACA
DNA 2: TGTTTATGCTGAGACAACCTGGAG
B5: PTA1-WT (dsDNA)
DNA 1: GCCAGTGTAAAATTAGTAACCGTATCTC
DNA 2: GAGATACGGTTACTAATTTTACACTGGC
B6: PTA1-M1 (dsDNA)
DNA 1: GCCAGTGTAAAACTAGTCACCGTATCTC
DNA 2: GAGATACGGTGACTAGTTTTACACTGGC
B7: RsmA-2A (dsDNA)
DNA 1: CAGTAAGCATCTGGGCTGCAAGCGTATA
DNA 2: TATACGCTTGCAGCCCAGATGCTTACTG
B8: AP1-brlA (dsDNA)
DNA 1: AAAACAATACAATTTACTAAAGTCCACTGGGCA
DNA 2: TGCCCAGTGGACTTTAGTAAATTGTATTGTTTT
B9: AP1-brlA-Mut (dsDNA)
DNA 1: AAAACAATACAATTGACTAGAGTCCACTGGGCA
DNA 2: TGCCCAGTGGACTCTAGTCAATTGTATTGTTTT
B10: penDE-CRE123 (dsDNA)
DNA 1: AGGTCCTGCATTAGCGTACGCCCCAGGTTTAGATCAAAGTTACGTAATTTATATGTA
DNA 2: TACATATAAATTACGTAACTTTGATCTAAACCTGGGGCGTACGCTAATGCAGGACCT
B11: penDE-CRE123-M1 (dsDNA)
DNA 1: AGGTCCTGCATTAGCGTACGCCCCAGGTTTAGATCAAAGCTACGAAATTTATATGTA
DNA 2: TACATATAAATTTCGTAGCTTTGATCTAAACCTGGGGCGTACGCTAATGCAGGACCT

Tests used:
[1] = target: T1, PcRsmA (Penicillium chrysogenum Wis54-1255 (P. rubens Wis54-1255)) (UniProt B6GZ21); test: EMSA; conditions: LightShift binding buffer 1X, about 10% glycerol, 5 mM MgCl2, 20 fmol biotin probe, 10 ug protein, 20 uL, room temperature 20 min; 5% native PAGE in 0.5X TBE …
T1 sequence: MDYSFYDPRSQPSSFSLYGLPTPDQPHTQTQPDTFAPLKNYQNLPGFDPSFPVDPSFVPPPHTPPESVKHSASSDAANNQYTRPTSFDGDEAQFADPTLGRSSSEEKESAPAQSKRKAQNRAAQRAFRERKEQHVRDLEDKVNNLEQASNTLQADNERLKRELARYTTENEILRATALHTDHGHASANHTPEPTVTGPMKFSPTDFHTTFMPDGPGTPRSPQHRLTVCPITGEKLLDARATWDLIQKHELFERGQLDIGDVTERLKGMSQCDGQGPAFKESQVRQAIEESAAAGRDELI

[2] = target: T2, PcYap1 (Penicillium chrysogenum Wis54-1255 (P. rubens Wis54-1255)) (UniProt B6HDY4); test: EMSA; conditions: LightShift binding buffer 1X, about 10% glycerol, 5 mM MgCl2, 20 fmol biotin probe, 10 ug protein, 20 uL, room temperature 20 min; 5% native PAGE in 0.5X TBE …
T2 sequence: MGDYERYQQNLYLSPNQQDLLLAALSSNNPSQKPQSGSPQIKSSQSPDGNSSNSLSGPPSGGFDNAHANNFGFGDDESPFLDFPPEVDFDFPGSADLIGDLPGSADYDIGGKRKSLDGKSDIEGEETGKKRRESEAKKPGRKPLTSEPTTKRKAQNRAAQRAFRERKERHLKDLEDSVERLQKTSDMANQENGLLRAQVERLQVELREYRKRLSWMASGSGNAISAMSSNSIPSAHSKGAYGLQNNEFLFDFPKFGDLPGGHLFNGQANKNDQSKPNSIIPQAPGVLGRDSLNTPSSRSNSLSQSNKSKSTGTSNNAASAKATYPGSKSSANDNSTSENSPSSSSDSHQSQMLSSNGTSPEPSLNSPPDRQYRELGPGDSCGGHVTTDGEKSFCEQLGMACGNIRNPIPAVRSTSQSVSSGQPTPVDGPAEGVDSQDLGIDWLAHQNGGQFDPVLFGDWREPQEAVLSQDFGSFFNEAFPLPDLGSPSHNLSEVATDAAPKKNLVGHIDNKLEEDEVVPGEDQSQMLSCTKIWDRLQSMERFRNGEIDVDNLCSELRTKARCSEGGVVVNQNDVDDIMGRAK

PcRsmA = target: T3, PcRsmA (Penicillium chrysogenum Wis54-1255 (P. …, UniProt B6GZ21 1-299)); test: EMSA; LightShift binding buffer 1X, about 10% glycerol, 5 mM MgCl2, 20 fmol biotin probe, 10 ug protein, 20 uL, room temperature 20 min; 5% native PAGE in 0.5X TBE; pH and salt not given; conditions: protein: recombinant; tags: C-terminal c-myc-6xHis; chain copies: 2; label: 3' biotin; blunt
T3 sequence: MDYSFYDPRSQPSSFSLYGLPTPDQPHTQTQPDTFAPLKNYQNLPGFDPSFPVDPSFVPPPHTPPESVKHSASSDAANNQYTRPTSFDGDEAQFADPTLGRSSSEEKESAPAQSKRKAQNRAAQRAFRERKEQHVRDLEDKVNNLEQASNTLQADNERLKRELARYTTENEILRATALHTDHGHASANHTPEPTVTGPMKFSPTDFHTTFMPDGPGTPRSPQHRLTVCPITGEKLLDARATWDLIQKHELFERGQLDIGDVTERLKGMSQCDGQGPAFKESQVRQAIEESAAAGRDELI

PcYap1 = target: T4, PcYap1 (Penicillium chrysogenum Wis54-1255 (P. …, UniProt B6HDY4 1-582)); test: as above; conditions: protein: recombinant; tags: C-terminal c-myc-6xHis; chain copies: 2; label: 3' biotin; blunt
T4 sequence: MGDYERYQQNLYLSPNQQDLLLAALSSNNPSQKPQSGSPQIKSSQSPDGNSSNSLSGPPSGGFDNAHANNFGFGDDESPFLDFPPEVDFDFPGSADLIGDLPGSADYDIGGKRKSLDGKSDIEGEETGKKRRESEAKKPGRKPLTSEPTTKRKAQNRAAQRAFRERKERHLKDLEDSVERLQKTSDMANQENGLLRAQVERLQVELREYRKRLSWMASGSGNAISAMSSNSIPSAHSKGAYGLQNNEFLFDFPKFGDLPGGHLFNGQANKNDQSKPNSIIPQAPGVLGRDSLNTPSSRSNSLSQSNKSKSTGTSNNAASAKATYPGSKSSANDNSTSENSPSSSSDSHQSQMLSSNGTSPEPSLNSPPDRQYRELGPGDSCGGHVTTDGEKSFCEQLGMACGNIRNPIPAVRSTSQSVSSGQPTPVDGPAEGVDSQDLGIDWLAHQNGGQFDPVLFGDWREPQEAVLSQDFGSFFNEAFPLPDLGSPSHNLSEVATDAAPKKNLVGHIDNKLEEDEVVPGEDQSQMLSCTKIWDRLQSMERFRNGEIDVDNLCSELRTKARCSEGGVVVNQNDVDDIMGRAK

Row | Molecule | binding [1] | binding [2] | binding result (PcRsmA) | binding result (PcYap1)
1 | CCGAGCATCAACGATTGGCCTGATCGCACCGTCTGCAAATGCCACGGTGCGGACCGACTGAAATCTCAGACCACCAAAGACCCTCCGACTTCGAGATACGG (double strand) [dwPta1] | no binding |  |  | 
2 | AACATCGCCGTCGTTGAGTGCACGTTGCCTACTCTCTCGTGGCTTGGCTGGGCCCACGAGCCCGATTGACTCGACGGTGTTACTTGGGTATCTATGGCCCCGTTTTCTGGCACGGTAATGATAAGTACTTACTAGTCTTCGAGCGGGGGAGTGTTGCTCTGCCCGAGCATCAACGATTGGCCTGA (double strand) [probe 4] | no binding | no binding |  | 
3 | TGTTTATGCTGAGACAACCTGGAGACATTATACGCTTGCAGCCCAGATGCTTACTGGATGGGGCCGCTGGAGCCAGTGTAAAATTAGTAACCGTATCTCGAAGTCGGAGGGTCTTTGGTGGTCTGAGATTTCAGTCGGTCCGCACCGTGGCATTTGCAGACGGTGCGATCAGGCCAATCGTTGATGCTCGG (double strand) [probe 5] | binds | binds |  | 
4 | B1 |  |  | binds | 
5 | B2 |  |  | no binding | 
6 | B3 |  |  | binds | 
7 | B4 |  |  | binds | 
8 | B5 |  |  | no binding | binds
9 | B6 |  |  | no binding | no binding
10 | B7 |  |  | no binding | 
11 | B8 |  |  | no binding | binds
12 | B9 |  |  | no binding | no binding
13 | B10 |  |  | binds | no binding
14 | B11 |  |  | no binding | 
